The data set “SEC” concerns the molecule itself. Nature of the data set: SEC.
Data set [1] concerns the molecule itself.

Numbering of substitutions follows the chain as printed. In names and notes the source's numbering stands. Where two headings read alike, the source gives them in different places.

B1: ^hexYME1L (hex-tag, 10-residue linker and the catalytic domain of human YME1L, residues 317-773) (other, homo sapiens)
chain: GELKAIAQELKAIAKELKAIAWELKAIAQGAGGSGSYFQSNARFRTTTGLDSAVDPVQMKNVTFEHVKGVEEAKQELQEVVEFLKNPQKFTILGGKLPKGILLVGPPGTGKTLLARAVAGEADVPFYYASGSEFDEMFVGVGASRIRNLFREAKANAPCVIFIDELDSVGGKRIESPMHPYSRQTINQLLAEMDGFKPNEGVIIIGATNFPEALDNALIRPGRFDMQVTVPRPDVKGRTEILKWYLNKIKFDQSVDPEIIARGTVGFSGAELENLVNQAALKAAVDGKEMVTMKELEFSKDKILMGPERRSVEIDNKNKTITAYHESGHAIIAYYTKDAMPINKATIMPRGPTLGHVSLLPENDRWNETRAQLLAQMDVSMGGRVAEELIFGTDHITTGASSDFDNATKIAKRMVTKFGMSEKLGVMTYSDTGKLSPETQSAIEQEIRILLRDSYERAKHILKTHAKEHKNLAEALLTYETLDAKEIQIVLEGKKLEVR
Consider B1, for which the stoichiometry N (as a rule, a count of units in the complex or per binding partner) in the data set “SEC” was determined as 6.

B2: ^hexYME1L_(E439A) M452C (other, homo sapiens)
chain: B1 chain with E165A, M178C
As to B2, the “stoichiometry N” value in data set [1] was 6.

B3: ^hexYME1L_(E439A) M701C (other, homo sapiens)
chain: B1 chain with E165A, M427C
Turning to B3, the “stoichiometry N” value in data set [1] was determined as 6.

B4: ^hexYME1L_(E439A) M500C (other, homo sapiens)
chain: B1 chain with E165A, M226C
As for B4, in data set [1], the “stoichiometry N” value came to 6.

For the origin of these results see publication doi:10.1101/2025.01.30.635686 (bioRxiv, 2025).
